Literature values, collected in EP4725499A1, “M[…] PROTEIN FOR IMM[…] ALZHEIMER'S DISEASE” (Centro De Neurociencias De Cuba, priority 2023, dated 2024).

Target: Aβ (Homo sapiens, UniProt P05067)
Sequence (P05067 672-713 limits assumed): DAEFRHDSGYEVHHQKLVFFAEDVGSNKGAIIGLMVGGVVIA

AN1792: AN1792 vaccine, consisting of a synthetic Aβ1-42 peptide
time after which responders maintained an anti-AN-1792 antibody response (follow-up of responders, 1-3 injections, low titers): approximately 4.6 years | patients who developed an anti-Aβ antibody response (patients with mild to moderate AD, phase II): 19.7% | progression of cognitive decline (responders compared with placebo-treated patients, follow-up): significantly reduced
